Results taken from patent US20120088722A1 (PROTEAPEX THERAPEUTICS, published 2012).
Ends that are not written are not given here.

Legend:
[1] = molecular target: T1, LTBP1 immunoprecipitated from avian hypertrophic cartilage (avian (chick embryo)); assay: fluorescent peptide (100 nM) binding to plate-dried LTBP1 immunoprecipitate of avian hypertrophic cartilage, reference scrambled peptide
T1 construct: An immunoprecipitate: proteins associated with LTBP1 (TGFβ LLC components) may be present; also called hypertrophic cartilage immunoprecipitates
Method: (§1) Peptide binding assay—Twenty-five micrograms of total equal protein from cartilage CHAPS extracts or five nanograms recombinant protein of the calcium-like EGF binding domain of LTBP1 (a kind gift of Sarah Dallas) or hypertrophic cartilage from day 17 avian embryo sterna and tibial growth plate cartilage from day 14 newborn rat pups were extracted with 0.5% CHAPS buffer and eluates immunoprecipitated with polyclonal antibody to LTBP1 and then samples were plated onto poly-L-lysine coated 96 well plates. After overnight drying, the protein-coated wells were incubated with 100 nM fluorescent-labeled peptide in Tris buffered saline [150 mM NaCl, 10 mM Tris, pH 8.0] and 20% horse serum for 4 hours at 16° C. After incubation, the wells are washed twice with binding buffer, the protein layer solubilized with 5N NaOH and fluorescence bound measured at 495 nm excitation and 520 nm emission on the LabSystems Fluoroskan Ascent CF plate reader. Statistical analyses and graphing were performed with Prism GraphPad software (ANOVA with Turkey's Analysis). A scrambled peptide of the same amino acid composition was prepared as a negative control. Competition assays were conducted in the presence of 10-fold more (1 μM) naked peptide.

[2] = molecular target: T2, recombinant protein of the calcium-binding, EGF-like domains of LTBP1 (CE-LTBP1); assay: fluorescent peptide (100 nM) binding to plate-dried recombinant CE-LTBP1, reference scrambled peptide
T2 construct: It was dried onto poly-L-lysine coated wells
Method: as §1

[3] = molecular target: T3, LTBP1 immunoprecipitated from rat tibial growth plate cartilage (rat, UniProt Q00918 21-1712, limits assumed); assay: fluorescent peptide (100 nM) binding to plate-dried LTBP1 immunoprecipitate of rat tibial growth plate cartilage, reference scrambled peptide
T3 construct: An immunoprecipitate: proteins associated with LTBP1 may be present; also called rat tibial growth plate cartilage immunoprecipitated extracts
T3 sequence (Q00918 21-1712 limits assumed): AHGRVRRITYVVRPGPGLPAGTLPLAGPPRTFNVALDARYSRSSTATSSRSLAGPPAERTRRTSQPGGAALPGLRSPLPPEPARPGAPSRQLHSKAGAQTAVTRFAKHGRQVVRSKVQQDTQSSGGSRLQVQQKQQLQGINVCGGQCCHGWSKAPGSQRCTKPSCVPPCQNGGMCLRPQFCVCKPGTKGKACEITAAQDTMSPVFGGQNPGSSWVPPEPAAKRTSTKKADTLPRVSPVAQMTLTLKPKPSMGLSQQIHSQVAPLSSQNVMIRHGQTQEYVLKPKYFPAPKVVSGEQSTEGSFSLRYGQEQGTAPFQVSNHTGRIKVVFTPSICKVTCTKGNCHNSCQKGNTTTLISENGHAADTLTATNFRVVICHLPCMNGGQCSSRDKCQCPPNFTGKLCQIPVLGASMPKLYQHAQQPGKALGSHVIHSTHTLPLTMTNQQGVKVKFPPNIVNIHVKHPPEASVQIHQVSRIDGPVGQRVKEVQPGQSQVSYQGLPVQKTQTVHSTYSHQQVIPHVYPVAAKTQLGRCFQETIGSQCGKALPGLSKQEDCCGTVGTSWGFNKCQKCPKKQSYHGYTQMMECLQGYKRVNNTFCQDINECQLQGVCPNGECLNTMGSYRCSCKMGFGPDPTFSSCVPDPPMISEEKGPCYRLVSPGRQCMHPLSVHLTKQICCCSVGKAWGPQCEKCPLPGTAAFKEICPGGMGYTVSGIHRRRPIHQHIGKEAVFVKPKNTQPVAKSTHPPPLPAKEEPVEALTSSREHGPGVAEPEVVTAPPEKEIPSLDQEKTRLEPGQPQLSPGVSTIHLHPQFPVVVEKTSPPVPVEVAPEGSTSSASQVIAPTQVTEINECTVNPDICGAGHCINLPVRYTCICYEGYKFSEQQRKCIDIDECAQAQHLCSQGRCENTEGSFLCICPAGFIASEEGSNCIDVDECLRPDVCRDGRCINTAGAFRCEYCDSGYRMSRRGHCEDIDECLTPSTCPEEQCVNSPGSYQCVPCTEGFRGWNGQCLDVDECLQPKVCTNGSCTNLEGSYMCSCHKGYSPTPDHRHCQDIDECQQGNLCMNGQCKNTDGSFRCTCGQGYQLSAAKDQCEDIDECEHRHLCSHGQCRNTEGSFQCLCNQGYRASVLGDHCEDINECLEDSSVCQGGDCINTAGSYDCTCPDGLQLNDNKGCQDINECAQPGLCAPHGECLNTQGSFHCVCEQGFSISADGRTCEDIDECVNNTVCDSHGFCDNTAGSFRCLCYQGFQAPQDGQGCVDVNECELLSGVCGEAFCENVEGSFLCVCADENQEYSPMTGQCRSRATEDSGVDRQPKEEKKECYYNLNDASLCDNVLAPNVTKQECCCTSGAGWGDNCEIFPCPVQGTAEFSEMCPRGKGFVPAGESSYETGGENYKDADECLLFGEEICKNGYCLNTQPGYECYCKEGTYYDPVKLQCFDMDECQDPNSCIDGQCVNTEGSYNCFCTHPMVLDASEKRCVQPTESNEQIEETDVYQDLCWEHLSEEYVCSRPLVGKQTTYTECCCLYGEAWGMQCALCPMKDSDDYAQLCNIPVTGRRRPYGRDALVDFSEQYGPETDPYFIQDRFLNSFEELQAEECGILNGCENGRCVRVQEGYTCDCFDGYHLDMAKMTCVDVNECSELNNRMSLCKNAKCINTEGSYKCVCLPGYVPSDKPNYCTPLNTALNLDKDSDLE
Method: as §1

fold binding over scrambled peptide [2]: 27 fold
fold binding over scrambled control [3]: 3.9 fold
Binder: ELGLPKEVKKISAAVHFED (also: fluorescent-labeled in binding assay, label and position not given here, also called MPP13-19; pxpt 001-1) [MMP13-19 peptide (amino acids 93-111 of SEQ ID NO: 1)]
fold binding over scrambled control [1]: 10.5 fold
